According to IntAct's records for PubMed 11846417:

Assays:
actn2_human ACTN2 = actn2_human ACTN2 (UniProt P35609)
telt_human TCAP = telt_human TCAP (UniProt O15273)
telt_human TCAP, sequence (O15273 whole entry): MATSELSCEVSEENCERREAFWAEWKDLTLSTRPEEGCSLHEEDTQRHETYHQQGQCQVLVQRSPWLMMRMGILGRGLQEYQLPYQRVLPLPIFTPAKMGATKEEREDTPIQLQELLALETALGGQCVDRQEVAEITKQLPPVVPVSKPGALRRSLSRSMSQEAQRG

actn2_human ACTN2, sequence (P35609 whole entry): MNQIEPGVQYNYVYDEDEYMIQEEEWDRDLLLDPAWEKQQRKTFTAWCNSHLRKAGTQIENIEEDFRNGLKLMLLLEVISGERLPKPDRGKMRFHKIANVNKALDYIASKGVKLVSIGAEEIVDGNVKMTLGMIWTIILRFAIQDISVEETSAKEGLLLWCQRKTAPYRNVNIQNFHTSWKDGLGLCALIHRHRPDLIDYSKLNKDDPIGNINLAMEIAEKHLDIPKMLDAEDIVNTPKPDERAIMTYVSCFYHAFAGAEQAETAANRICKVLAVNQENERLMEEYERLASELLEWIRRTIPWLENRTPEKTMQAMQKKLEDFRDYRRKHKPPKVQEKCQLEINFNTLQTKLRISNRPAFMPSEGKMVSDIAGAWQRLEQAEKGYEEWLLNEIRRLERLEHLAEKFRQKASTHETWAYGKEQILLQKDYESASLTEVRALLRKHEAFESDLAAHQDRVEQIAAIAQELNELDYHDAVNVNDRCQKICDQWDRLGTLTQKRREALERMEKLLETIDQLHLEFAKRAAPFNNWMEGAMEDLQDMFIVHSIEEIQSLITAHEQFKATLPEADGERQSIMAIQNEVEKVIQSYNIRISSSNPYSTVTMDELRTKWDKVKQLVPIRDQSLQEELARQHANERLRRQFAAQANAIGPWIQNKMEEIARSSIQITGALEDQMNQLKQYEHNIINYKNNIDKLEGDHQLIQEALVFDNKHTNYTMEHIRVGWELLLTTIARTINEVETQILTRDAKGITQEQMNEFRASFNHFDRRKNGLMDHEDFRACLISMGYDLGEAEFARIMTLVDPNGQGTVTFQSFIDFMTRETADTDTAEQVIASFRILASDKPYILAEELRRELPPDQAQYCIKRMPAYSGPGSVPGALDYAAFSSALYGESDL

effect of a mutation on the interaction (actn2_human ACTN2)	effect of a mutation on the interaction (telt_human TCAP)	Substance
decreasing interaction		Titin (Homo sapiens), Q8WZ42 A743V
	decreasing interaction	Titin (Homo sapiens), Q8WZ42 V54M
